Paper PMC12370991, “Visualizing acyl carrier protein interactions within a crosslinked type I polyketide synthase” (Nature Communications, 2025)

Assays:
E. coli FabF (KS) = target: T1, E. coli FabF (KS) (E. coli, UniProt P0AAI5 1-413); experiment: cross-linking; conditions: both partners purified
T1 construct: FabF, type II FAS ketosynthase, E. coli
T1 sequence (looked up): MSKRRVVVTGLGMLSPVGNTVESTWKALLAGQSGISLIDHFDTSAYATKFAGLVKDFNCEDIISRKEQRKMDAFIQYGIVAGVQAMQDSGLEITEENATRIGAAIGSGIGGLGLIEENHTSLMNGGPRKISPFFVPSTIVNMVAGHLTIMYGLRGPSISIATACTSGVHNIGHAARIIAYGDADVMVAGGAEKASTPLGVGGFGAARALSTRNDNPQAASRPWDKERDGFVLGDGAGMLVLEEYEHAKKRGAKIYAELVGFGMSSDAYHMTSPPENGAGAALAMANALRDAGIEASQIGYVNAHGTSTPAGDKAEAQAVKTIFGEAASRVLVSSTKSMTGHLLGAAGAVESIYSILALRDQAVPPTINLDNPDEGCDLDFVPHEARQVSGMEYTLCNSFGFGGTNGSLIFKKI

E. coli FabA (DH) = target: T2, E. coli FabA (DH) (E. coli, UniProt P0A6Q3 2-172); experiment: cross-linking; conditions: both partners purified
T2 construct: FabA, type II FAS dehydratase, E. coli
T2 sequence: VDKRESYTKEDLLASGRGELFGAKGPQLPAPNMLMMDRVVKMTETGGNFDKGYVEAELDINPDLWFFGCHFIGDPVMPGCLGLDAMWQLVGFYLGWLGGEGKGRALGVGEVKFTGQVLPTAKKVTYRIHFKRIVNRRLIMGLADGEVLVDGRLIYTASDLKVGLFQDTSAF

binding result (E. coli FabF (KS)): binds
binding result (E. coli FabA (DH)): binds
B1: E. coli crypto-AcpP (acyl carrier protein of the type II FAS loaded with a crosslinker) (natural protein)
chain: MSTIEERVKKIIGEQLGVKQEEVTNNASFVEDLGADSLDTVELVMALEEEFDTEIPDEEAEKITTVQAAIDYINGHQA
modifications: crosslinker 2, 3, 5, 6 or 8 loaded chemoenzymatically (crypto-AcpP)
notes: AcpP, acyl carrier protein of the type II fatty acid synthase, E. coli; also called E. coli ACP; source: crypto-AcpP purified by SEC
